Experimental data: patent publication US7179468 (CORNELL RESEARCH FOUNDATION, dated 2007)

Legend:
[1] = target: HIV-1 envelope glycoprotein (gp120/gp41 complex) of isolate 2076c1.3 (HIV-1); test: cell-based or functional assay
[2] = target: HIV-1 envelope glycoprotein (gp120/gp41 complex) of isolate 92US657 (HIV-1); test: cell-based or functional assay
[3] = target: HIV-1 envelope glycoprotein (gp120/gp41 complex) of isolate HC4 (HIV-1); test: cell-based or functional assay
[4] = target: HIV-1 envelope glycoprotein (gp120/gp41 complex) of isolate JRFL (HIV-1); test: cell-based or functional assay
[5] = target: HIV-1 envelope glycoprotein (gp120/gp41 complex) of isolate NL4-3 (HIV-1); test: cell-based or functional assay
[6] = target: Q652L peptide (C52 peptide with leucine for glutamine at position 652) (HIV-1 (HXB2 strain)); test: sedimentation equilibrium, 4 C; self-association
[7] = target: HIV-1 envelope glycoprotein (gp120/gp41 complex) of isolate DH123 (HIV-1); test: cell-based or functional assay
[8] = target: HIV-1 envelope glycoprotein (gp120/gp41 complex) of isolate SF162 (HIV-1) (UniProt P19549); test: cell-based or functional assay
[9] = target: the molecule itself; test: sedimentation equilibrium; self-association

In the case of “human antibody 2F5 isolated from an HIV-1-infected donor”, the EC50 IgG (ug/ml), neutralization of HIV-1 (p24 production in PHA-activated PBMC) [1] is reported as 38.1 µg/mL, the EC50 IgG (ug/ml), neutralization of HIV-1 (p24 production in PHA-activated PBMC) [2] is reported as 57.8 µg/mL and the EC50 IgG (ug/ml), neutralization of HIV-1 (p24 production in PHA-activated PBMC) [3] is reported as 34.2 µg/mL. It also gave an EC50 IgG (ug/ml), neutralization of HIV-1 (p24 production in PHA-activated PBMC) [4] of 4.37 µg/mL and an EC50 IgG (ug/ml), neutralization of HIV-1 (p24 production in PHA-activated PBMC) [5] of 15.2 µg/mL.

Work on “Q652L peptide (C52 peptide with leucine for glutamine at position 652)” yielded a molecular weight from sedimentation equilibrium (expected for a trimer 19,419) [6] of 17700.

For CD4-IgG2 (Fc fusion), the EC50 IgG (ug/ml), neutralization of HIV-1 (p24 production in PHA-activated PBMC) [1] was > 10 µg/mL, the EC50 IgG (ug/ml), neutralization of HIV-1 (p24 production in PHA-activated PBMC) [2] was > 10 µg/mL and the EC50 IgG (ug/ml), neutralization of HIV-1 (p24 production in PHA-activated PBMC) [7] was 5.18 µg/mL. The EC50 IgG (ug/ml), neutralization of HIV-1 (p24 production in PHA-activated PBMC) [3] was > 10 µg/mL, the EC50 IgG (ug/ml), neutralization of HIV-1 (p24 production in PHA-activated PBMC) [4] was 0.51 µg/mL and the EC50 IgG (ug/ml), neutralization of HIV-1 (p24 production in PHA-activated PBMC) [5] was 0.21 µg/mL. The EC50 IgG (ug/ml), neutralization of HIV-1 (p24 production in PHA-activated PBMC) [8] was < 0.062 µg/mL.

B1: N656L peptide (C52 peptide with leucine for asparagine at position 656) (peptide)
chain: NHTTWLEWDREINNYTSLIHSLIEESQNQQEKLEQELLELDKWASLWNWFNI
notes: No unique oligomeric state; The apparent molecular weight depends on the concentration
B1: binds [9].
